Results published in patent US6586236.

Biological target: goat anti-mouse kappa light chain IgG (Southern Biotech)
Assay: phage panning of 1:1 W100/R100 mixture on coated wells, oligonucleotide hybridization of plaque lifts

## DB3 R100 VH/κ-gpVIII fusion polypeptide displayed on JC-M13-88 phage (from UniProt P69541 24-73) (scFv)
  % DB3 R100 variant in DB3 phage eluted, 2 rounds of panning: 82.1%
  % DB3 R100 variant in DB3 phage eluted, 3 rounds of panning: 79.2%
